Target: Crosstide substrate peptide (UBI)

B1: MyrAkt3HA (full length human Akt3 fused to the myristylation signal from human Src at the N-terminus and to an HA-tag at the C-terminus) (protein)
chain: MGSNKSKPKDASQRRRSSDVTIVKEGWVQKRGEYIKNWRPRYFLLKTDGSFIGYKEKPQDVDLPYPLNNFSVAKCQLMKTERPKPNTFIIRCLQWTTVIERTFHVDTPEEREEWTEAIQAVADRLQRQEEERMNCSPTSQIDNIGEEEMDASTTHHKRKTMNDFDYLKLLGKGTFGKVILVREKASGKYYAMKILKKEVIIAKDEVAHTLTESRVLKNTRHPFLTSLKYSFQTKDRLCFVMEYVNGGELFFHLSRERVFSEDRTRFYGAEIVSALDYLHSGKIVYRDLKLENLMLDKDGHIKITDFGLCKEGITDAATMKTFCGTPEYLAPEVLEDNDYGRAVDWWGLGVVMYEMMCGRLPFYNQDHEKLFELILMEDIKFPRTLSSDAKSLLSGLLIKDPNKRLGGGPDDAKEIMRHSFFSGVNWQDVYDKKLVPPFKPQVTSETDTRYFDEEFTAQTITITPPEKCQQSDCGMLGNWKK
With B1 the “Kinase activity of anti-HA immunopellets (32P incorporation into substrate peptide, scintillation counting)” value was “Kinase activity present in CMV6[MyrAkt3HA] transfected samples was 20 times higher than that present in cells transfected with the control vector CMV6”.

Reference: patent US20030100049
